We go through four substances from patent EP1146896B1.

Assay [1] has as its target B28-N^ε-myristoyl-Lys^B28Pro^B29 human insulin analog (human). In words: static light scattering, self-association, pH 7.5.
Assay [2] has the same target. The experiment in a line: static light scattering, self-association, pH 7.8.
The target is the same in assay [3]. In words: static light scattering, self-association, pH 8.0.
Assay [4] shares this target. The experiment in a line: static light scattering, self-association, pH 8.3.
For assay [5] the target is unchanged. In words: static light scattering, self-association, pH 8.5.
For assay [6] the target is unchanged. The experiment in a line: sedimentation velocity analysed with DCDT Plus, self-association, pH 8.0.
For assay [7] the target is unchanged. In words: sedimentation velocity, self-association, 10 mM Tris pH 7.96 (monomer 6,018 g/mole, theoretical hexamer 36,108 g/mole).
Assay [8] has the same target. The experiment in a line: sedimentation velocity, self-association, 7 mM phosphate pH 7.95 (monomer 6,018 g/mole, theoretical hexamer 36,108 g/mole).
In assay [9] the target is B28-N^ε-octanoyl-Lys^B28Pro^B29 human insulin analog (human). In words: sedimentation velocity (DCDT Plus), self-association, pH 8.0, first fit.
For assay [10] the target is unchanged. The experiment in a line: sedimentation velocity (DCDT Plus), self-association, pH 8.0, refined fit.
Assay [11] has as its target B29-N^ε-myristoyl-des(B30) human insulin (human) (UniProt P01308). In words: sedimentation velocity (DCDT Plus, single Gaussian fit), self-association, pH 8.4.
The target is the same in assay [12]. In words: sedimentation velocity (DCDT Plus, single Gaussian fit), self-association, pH 7.97.
Assay [13] shares this target. In words: sedimentation velocity (DCDT Plus, single Gaussian fit), self-association, pH 7.5; heterogeneous.
The target is the same in assay [14]. The experiment in a line: sedimentation velocity, area of the profile compared with an ideal hypothetical hexamer curve, self-association, pH 8.0 (7.97).
For assay [15], the target named is B29-N^ε-octanoyl-Asp^B28 human insulin analog (human). The experiment in a line: sedimentation velocity (DCDT Plus, two Gaussian fit), self-association, pH 8.0.
For assay [16] the target is unchanged. The experiment in a line: sedimentation velocity (DCDT Plus, two Gaussian fit), self-association, pH 7.5; hexamer said not to be dominant.
The target is the same in assay [17]. In words: sedimentation velocity (DCDT Plus, two Gaussian fit), self-association, pH 7.5; the model is the 27,700 g/mole species, not hexamer.

A value given as a limit tells only on which side of the number the result lay.

For “B28-N^ε-myristoyl-Lys^B28Pro^B29 human insulin analog (ligand)”, the Mw (weight-average molecular weight of association) in [1] turned out to be 127000 g/mol; in [2], 60700 g/mol; in assay [3], 40400 g/mol; in assay [4] it was 40400 g/mol; in [5], 49100 g/mol. Further, in assay [6], the molecular weight of association stood at 34400 grams/mole. In addition, in assay [6], the percent of data described by the hexamer model is above 96%. Besides, the Calculated MW of association was 35000 g/mol in assay [7] and 34300 g/mol in assay [8].

Take “B28-N^ε-octanoyl-Lys^B28Pro^B29 human insulin analog (ligand)”: in assay [9], the molecular weight of association was determined as 35300 g/mol. Also, in [10], the molecular weight of association is 40800 g/mol and the percent of data described by the hexamer model is above 94%.

For “B29-N^ε-myristoyl-des(B30) human insulin (from UniProt P01308 25-110; P01308 25-110) (ligand)”, the values for the MW (g/mole) of association in assay [11], in [12] and in [13] were 39000 g/mol, 30700 g/mol and 23000 g/mol, respectively. In [14], this substance came in with a percent in the hexamer association state above 92 percent.

“B29-N^ε-octanoyl-Asp^B28 human insulin analog (ligand)”: the molecular weight of association in assay [15] was 33200 g/mol; in assay [16], 27700 g/mol. The percent of data described by the hexamer model in assay [15] is 85%. For the same substance, the percent of data described by the model in [17] is above 92%.
